Reference: patent US20180258163A1 (Chugai, published 2018)
Positions count from the first letter of the chain named.

T1: soluble human FcγRIIb (human, UniProt P31994 43-217, limits assumed)
T1 construct: soluble His-tagged form; also called hFcγRIIb
T1 sequence (looked up): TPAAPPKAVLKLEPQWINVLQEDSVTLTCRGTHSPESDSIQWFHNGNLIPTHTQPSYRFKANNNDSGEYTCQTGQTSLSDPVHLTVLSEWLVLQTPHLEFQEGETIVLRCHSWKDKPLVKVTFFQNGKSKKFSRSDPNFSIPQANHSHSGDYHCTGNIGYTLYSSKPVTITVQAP

B1: Ab1H-P844/Ab1L (antibody, human IgG1, kappa, name in EU numbering)
heavy: QVQLVESGGGLVQPGGSLRLSCAASGFTLSNHDMTWVRQAPGKGLEYVSIINTYGNHWYANWASGRFTISRDNSKNTVYLQIDSLRAEDTATYYCARETHHGSSGIDHWGQGTLVTVSSASTKGPSVFPLAPSSKSTSGGTAALGCLVKDYFPEPVTVSWNSGALTSGVHTFPAVLQSSGLYSLSSVVTVPSSSLGTQTYICNVNHKPSNTKVDKKVEPKSCDKTHTCPPCPAPELLGGDSVFLFPPKPKDTLMISRTPEVTCVVVDVSHEDPEVKFNWYVDGVEVHNAKTKPREEQYNATYRVVSVLTVLHQDWLNGKEYKCKVSNKALPAPIEKTISKAKGQPREPQVYTLPPSREEMTKNQVSLTCLVKGFYPSDIAVEWQSNGQPENNYKTTPPVLDSDGSFFLYSKLTVDKSRWQQGNVFSCSVMHEALHNHYTQKSLSLSP
light: DIQMTQSPSSVSASVGDRVTITCQASESIYSGLAWYQQKPGQPPKLLIYDHSTLASGVPSRFSGSGSGTEYALTISSLQPEDFATYYCQHADYAHHSDNVFGGGTKVEIKRTVAAPSVFIFPPSDEQLKSGTASVVCLLNNFYPREAKVQWKVDNALQSGNSQESVTEQDSKDSTYSLSSTLTLSKADYEKHKVYACEVTHQGLSSPVTKSFNRGEC
notes: copies: 2 + 2
B2: Ab1H-P908/Ab1L (antibody, human IgG1, kappa, name in EU numbering)
heavy: B1 heavy with Q384E, N436R
light: B1 light
notes: copies: 2 + 2
B3: Ab1H-P905/Ab1L (antibody, human IgG1, kappa, name in EU numbering)
heavy: B1 heavy with Q384E, N386R
light: B1 light
notes: copies: 2 + 2
B4: Ab1H-P854/Ab1L (antibody, name in EU numbering)
heavy: B1 heavy with Q384E, L445R
light: B1 light
notes: copies: 2 + 2
B5: Ab1H-P846/Ab1L (antibody, human IgG1, kappa, name in EU numbering)
heavy: B1 heavy with Q384E, Q388K
light: B1 light
notes: copies: 2 + 2
B6: Ab1H-P906/Ab1L (antibody, human IgG1, kappa, name in EU numbering)
heavy: B1 heavy with Q384E, G387R
light: B1 light
notes: copies: 2 + 2
B7: Ab1H-P847/Ab1L (antibody, human IgG1, kappa, name in EU numbering)
heavy: B1 heavy with Q384E, N391K
light: B1 light
notes: copies: 2 + 2
B8: Ab1H-P852/Ab1L (antibody, human IgG1, kappa, name in EU numbering)
heavy: B1 heavy with Q384E, S426K
light: B1 light
notes: copies: 2 + 2
B9: Ab1H-P850/Ab1L (antibody, human IgG1, kappa, name in EU numbering)
heavy: B1 heavy with Q384E, Q421K
light: B1 light
notes: copies: 2 + 2
B10: Ab1H-P851/Ab1L (antibody, human IgG1, kappa, name in EU numbering)
heavy: B1 heavy with Q384E, N423R
light: B1 light
notes: copies: 2 + 2
B11: Ab1H-P848/Ab1L (antibody, human IgG1, kappa, name in EU numbering)
heavy: B1 heavy with Q384E, S417R
light: B1 light
notes: copies: 2 + 2
B12: Ab1H-P845/Ab1L (antibody, human IgG1, kappa, name in EU numbering)
heavy: B1 heavy with Q384K
light: B1 light
notes: copies: 2 + 2
B13: Ab1H-P909/Ab1L (antibody, human IgG1, kappa, name in EU numbering)
heavy: B1 heavy with Q384E, H437R
light: B1 light
notes: copies: 2 + 2
B14: Ab1H-P849/Ab1L (antibody, human IgG1, kappa, name in EU numbering)
heavy: B1 heavy with Q384E, Q420R
light: B1 light
notes: copies: 2 + 2

biological target: T1, soluble human FcγRIIb; experiment: SPR, Ab-IgE complex over captured hFcγRIIb, pH 7.4, 25C
Method: Fc region variant-containing antibody binding assays between soluble human FcγRIIb (a.k.a. “hFcγRIIb”) and antigen-antibody complexes were performed using BIACORE® T200 (GE Healthcare). Soluble hFcγRIIb was produced in the form of a His-tagged molecule using methods known in the art. An appropriate amount of an anti-His antibody was fixed onto Sensor chip CM5 (GE Healthcare) by the amine coupling method using a His capture kit (GE Healthcare) to capture hFcγRIIb. Next, an antibody-antigen complex and a running buffer (as a reference solution) was injected, and interaction was allowed to take place with the hFcγRIIb captured onto the sensor chip. 20 mM N-(2-Acetamido)-2-aminoethanesulfonic acid, 150 mM NaCl, 1.2 mM CaCl₂, and 0.05% (w/v) Tween 20 at pH 7.4 was used as the running buffer, and the respective buffer was also used to dilute the soluble hFcγRIIb. To regenerate the sensor chip, 10 mM glycine-HCl at pH 1.5 was used. All measurements were carried out at 25° C. Analyses were performed based on binding (RU) calculated from sensorgrains obtained by the measurements, and relative values when the binding amount of P600 was defined as 1.00 are shown. To calculate the parameters, the BIACORE® T100 Evaluation Software (GE Healthcare) was used.

Binder | relative binding (RU), P600=1.00
B1 | 1.24 fold
B2 | 0.42 fold
B3 | 1.34 fold
B4 | 1.93 fold
B5 | 1.71 fold
B6 | 1.74 fold
B7 | 1.57 fold
B8 | 1.4 fold
B9 | 2.22 fold
B10 | 1.43 fold
B11 | 1.38 fold
B12 | 1.38 fold
B13 | 0.73 fold
B14 | 2.21 fold
